The Human Domainome abundance scans (Beltran et al. 2025)
± gives the uncertainty stated by the source.

B1: COUP transcription factor 1, residues 83 to 159; numbered along this chain, P10589 (parent)
chain: HIECVVCGDKSSGKHYGQFTCEGCKSFFKRSVRRNLTYTCRANRNCPIDQHHRNQCQYCRLKKCLKVGMRREAVQRG

Variants of: B1
Experiment: abundance fitness (aPCA) (normalised: wild type 0, dead -1); higher = more abundant; growth selection in yeast, the domain comes from the species named
Conditions: Homo sapiens

First: H51A
Second: H51R
The abundance fitness of the first is higher: 0.039 ± 0.044 for the first, -0.16 ± 0.039 for the second.

H51E and H51C are within error of each other in abundance fitness: -0.041 ± 0.051 for the first, -0.118 ± 0.064 for the second.

H51K and H51Y are within error of each other in abundance fitness: 0.059 ± 0.064 for the first, -0.09 ± 0.096 for the second.

Going from C7M to C7Y, the abundance fitness rises from -0.84 ± 0.24 to -0.268 ± 0.2.

C7V and C7E are within error of each other in abundance fitness: -0.597 ± 0.071 for the first, -0.659 ± 0.1 for the second.

C7P and C7L are within error of each other in abundance fitness: -1.17 ± 0.3 for the first, -0.843 ± 0.15 for the second.

C7K and R33C are within error of each other in abundance fitness: -0.509 ± 0.12 for the first, -0.698 ± 0.26 for the second.

Going from R33L to C59G, the abundance fitness falls from 0.109 ± 0.05 to -0.789 ± 0.055.

C59F and C59E are within error of each other in abundance fitness: -0.978 ± 0.42 for the first, -0.696 ± 0.078 for the second.

D9N and D9R are within error of each other in abundance fitness: -0.099 ± 0.15 for the first, -0.018 ± 0.067 for the second.

Going from D9I to D9Q, the abundance fitness rises from -0.203 ± 0.17 to 0.104 ± 0.12.

D9K and V32K are within error of each other in abundance fitness: -0.083 ± 0.16 for the first, -0.181 ± 0.14 for the second.

First: V32A
Second: V32R
The abundance fitness of the first is higher: -0.151 ± 0.04 for the first, -0.66 ± 0.081 for the second.

V32F and R70L are within error of each other in abundance fitness: -0.068 ± 0.16 for the first, 0.07 ± 0.056 for the second.

Going from R70V to R70E, the abundance fitness rises from 0.032 ± 0.056 to 0.135 ± 0.038.

R70F and R70S are within error of each other in abundance fitness: 0.002 ± 0.12 for the first, 0.144 ± 0.039 for the second.

Going from M69L to M69W, the abundance fitness falls from -0.027 ± 0.035 to -0.629 ± 0.057.

Compared with M69A, T37I is higher in abundance fitness: -0.943 ± 0.094 for the first, -0.038 ± 0.061 for the second.

T37Q and T37M are within error of each other in abundance fitness: -0.104 ± 0.078 for the first, -0.215 ± 0.082 for the second.

Going from T37S to G23V, the abundance fitness falls from -0.009 ± 0.047 to -0.338 ± 0.11.

G23T and G23W are within error of each other in abundance fitness: -0.009 ± 0.21 for the first, 0.189 ± 0.088 for the second.

Going from K10P to K10H, the abundance fitness falls from 0.051 ± 0.071 to -0.288 ± 0.21.

Compared with K10R, S26R is higher in abundance fitness: -0.214 ± 0.049 for the first, -0.019 ± 0.074 for the second.

Compared with S26I, Q18F is higher in abundance fitness: -0.611 ± 0.43 for the first, 0.151 ± 0.21 for the second.

First: Q18R
Second: Q18C
The abundance fitness of the first is lower: -0.041 ± 0.053 for the first, 0.187 ± 0.091 for the second.

Going from Q18S to F28G, the abundance fitness falls from -0.028 ± 0.068 to -1.05 ± 0.1.

Going from F28E to Q50R, the abundance fitness rises from -0.539 ± 0.093 to -0.119 ± 0.036.

First: R30L
Second: R30K
The abundance fitness of the first is lower: -0.195 ± 0.12 for the first, 0.389 ± 0.26 for the second.

First: R34W
Second: R34M
The abundance fitness of the first is lower: -0.25 ± 0.085 for the first, -0.002 ± 0.1 for the second.

Compared with R34G, R34T is lower in abundance fitness: 0.131 ± 0.048 for the first, -0.295 ± 0.15 for the second.

Compared with Y16K, Y16F is higher in abundance fitness: -0.209 ± 0.18 for the first, 0.201 ± 0.14 for the second.

First: Y16L
Second: Y16A
The abundance fitness of the first is higher: -0.152 ± 0.089 for the first, -0.441 ± 0.11 for the second.

Compared with Y16Q, E3K is lower in abundance fitness: 0.096 ± 0.094 for the first, -0.226 ± 0.083 for the second.

E3F and E3A are within error of each other in abundance fitness: -0.173 ± 0.35 for the first, -0.01 ± 0.044 for the second.

E3C and E3H are within error of each other in abundance fitness: -0.072 ± 0.083 for the first, -0.15 ± 0.17 for the second.

E3T and G77S are within error of each other in abundance fitness: -0.058 ± 0.078 for the first, 0.064 ± 0.052 for the second.

G77F and G77L are within error of each other in abundance fitness: -0.317 ± 0.18 for the first, -0.095 ± 0.064 for the second.

G77M and G77C are within error of each other in abundance fitness: -0.017 ± 0.12 for the first, -0.096 ± 0.069 for the second.

I48Q and I48M are within error of each other in abundance fitness: -0.125 ± 0.065 for the first, -0.13 ± 0.063 for the second.

I48Y and I48A are within error of each other in abundance fitness: -0.518 ± 0.12 for the first, -0.366 ± 0.071 for the second.

Compared with I48R, I48T is higher in abundance fitness: -0.461 ± 0.065 for the first, -0.094 ± 0.056 for the second.

Going from R76D to R76T, the abundance fitness falls from 0.221 ± 0.066 to 0.025 ± 0.051.

R76L and R76W are within error of each other in abundance fitness: 0.024 ± 0.045 for the first, 0.007 ± 0.051 for the second.

R76N and F19Q are within error of each other in abundance fitness: 0.123 ± 0.063 for the first, 0.125 ± 0.076 for the second.

F19L and F19A are within error of each other in abundance fitness: -0.129 ± 0.075 for the first, -0.101 ± 0.071 for the second.

First: S11T
Second: S11R
The abundance fitness of the first is higher: -0.044 ± 0.082 for the first, -0.377 ± 0.06 for the second.

Going from S11G to S11H, the abundance fitness rises from -0.071 ± 0.033 to 0.314 ± 0.3.

G8A and G8R are within error of each other in abundance fitness: 0.016 ± 0.061 for the first, 0.014 ± 0.058 for the second.

C4Y and C4K are within error of each other in abundance fitness: -0.9 ± 0.12 for the first, -0.775 ± 0.18 for the second.

Compared with C4M, C4H is lower in abundance fitness: -0.521 ± 0.12 for the first, -1.23 ± 0.25 for the second.

C4D and C4T are within error of each other in abundance fitness: -0.724 ± 0.13 for the first, -0.635 ± 0.11 for the second.

Compared with C4G, R44H is higher in abundance fitness: -0.731 ± 0.11 for the first, -0.003 ± 0.096 for the second.

R44M and R44D are within error of each other in abundance fitness: 0.057 ± 0.052 for the first, 0.084 ± 0.06 for the second.

First: R44Y
Second: C40G
The abundance fitness of the first is higher: -0.432 ± 0.2 for the first, -0.731 ± 0.064 for the second.

A73T and A73M are within error of each other in abundance fitness: -0.034 ± 0.048 for the first, -0.065 ± 0.045 for the second.

Going from A73Q to A73L, the abundance fitness falls from 0.063 ± 0.046 to -0.04 ± 0.036.

First: A73V
Second: A73R
The abundance fitness of the first is higher: -0.052 ± 0.037 for the first, -0.275 ± 0.038 for the second.

Compared with R41S, R41T is lower in abundance fitness: 0.176 ± 0.057 for the first, -0.068 ± 0.082 for the second.

Compared with Q75Y, Q75K is higher in abundance fitness: -0.219 ± 0.093 for the first, -0.071 ± 0.052 for the second.

Going from Q75N to Q75A, the abundance fitness rises from -0.115 ± 0.083 to 0.125 ± 0.036.

K29T and K29G are within error of each other in abundance fitness: 0.026 ± 0.058 for the first, 0.068 ± 0.031 for the second.

K29N and K29M are within error of each other in abundance fitness: -0.01 ± 0.18 for the first, -0.055 ± 0.081 for the second.

First: N45L
Second: N45R
The abundance fitness of the first is lower: -0.322 ± 0.14 for the first, 0.067 ± 0.05 for the second.

N45H and N45D are within error of each other in abundance fitness: -0.182 ± 0.31 for the first, -0.035 ± 0.12 for the second.

N45P and H15V are within error of each other in abundance fitness: 0.015 ± 0.16 for the first, -0.135 ± 0.12 for the second.

Going from H15W to H15K, the abundance fitness falls from 0.196 ± 0.14 to -0.857 ± 0.5.

H15D and H15L are within error of each other in abundance fitness: -0.226 ± 0.24 for the first, 0.001 ± 0.14 for the second.

Going from H15C to A42Y, the abundance fitness rises from -0.362 ± 0.25 to 0.109 ± 0.22.

Compared with A42Q, A42L is lower in abundance fitness: 0.239 ± 0.089 for the first, 0 ± 0.067 for the second.

A42N and A42K are within error of each other in abundance fitness: -0.45 ± 0.4 for the first, 0.002 ± 0.085 for the second.

L61A and L61P are within error of each other in abundance fitness: -0.72 ± 0.07 for the first, -0.65 ± 0.088 for the second.

Going from L61V to L61G, the abundance fitness falls from -0.555 ± 0.05 to -0.73 ± 0.06.

G17L and G17H are within error of each other in abundance fitness: -0.437 ± 0.086 for the first, -0.459 ± 0.24 for the second.

G17C and G17Y are within error of each other in abundance fitness: -0.274 ± 0.16 for the first, -0.396 ± 0.36 for the second.

G17N and G17A are within error of each other in abundance fitness: -0.165 ± 0.21 for the first, -0.358 ± 0.071 for the second.

H52R and H52F are within error of each other in abundance fitness: -0.154 ± 0.042 for the first, -0.068 ± 0.062 for the second.

H52A and T39S are within error of each other in abundance fitness: 0.041 ± 0.041 for the first, 0.113 ± 0.087 for the second.

T39I and T39E are within error of each other in abundance fitness: -0.019 ± 0.27 for the first, 0.191 ± 0.087 for the second.

T39C and C24N are within error of each other in abundance fitness: -0.244 ± 0.29 for the first, -0.702 ± 0.35 for the second.

Going from C24M to C24D, the abundance fitness rises from -1.08 ± 0.26 to -0.335 ± 0.088.

Going from C24Y to C24R, the abundance fitness falls from -0.319 ± 0.16 to -0.795 ± 0.071.

First: Y58D
Second: Y58R
The abundance fitness of the first is higher: -0.046 ± 0.059 for the first, -0.458 ± 0.043 for the second.

Compared with Y58M, Y58H is higher in abundance fitness: -0.312 ± 0.063 for the first, 0.051 ± 0.069 for the second.

Y58Q gave an abundance fitness of -0.231 ± 0.052.
